B1: Speckle-type POZ protein (Homo sapiens), O43791 (parent)
chain: MSRVPSPPPPAEMSSGPVAESWCYTQIKVVKFSYMWTINNFSFCREEMGEVIKSSTFSSGANDKLKWCLRVNPKGLDEESKDYLSLYLLLVSCPKSEVRAKFKFSILNAKGEETKAMESQRAYRFVQGKDWGFKKFIRRDFLLDEANGLLPDDKLTLFCEVSVVQDSVNISGQNTMNMVKVPECRLADELGGLWENSRFTDCCLCVAGQEFQAHKAILAARSPVFSAMFEHEMEESKKNRVEINDVEPEVFKEMMCFIYTGKAPNLDKMADDLLAAADKYALERLKVMCEDALCSNLSVENAAEILILADLHSADQLKTQAVDFINYHASDVLETSGWKSMVVSHPHLVAEAYRSLASAQCPFLGPPRKRLKQS

Variants of: B1
Conditions: with mybb_human MYBL2, P10244
mybb_human MYBL2, P10244, sequence (P10244 whole entry): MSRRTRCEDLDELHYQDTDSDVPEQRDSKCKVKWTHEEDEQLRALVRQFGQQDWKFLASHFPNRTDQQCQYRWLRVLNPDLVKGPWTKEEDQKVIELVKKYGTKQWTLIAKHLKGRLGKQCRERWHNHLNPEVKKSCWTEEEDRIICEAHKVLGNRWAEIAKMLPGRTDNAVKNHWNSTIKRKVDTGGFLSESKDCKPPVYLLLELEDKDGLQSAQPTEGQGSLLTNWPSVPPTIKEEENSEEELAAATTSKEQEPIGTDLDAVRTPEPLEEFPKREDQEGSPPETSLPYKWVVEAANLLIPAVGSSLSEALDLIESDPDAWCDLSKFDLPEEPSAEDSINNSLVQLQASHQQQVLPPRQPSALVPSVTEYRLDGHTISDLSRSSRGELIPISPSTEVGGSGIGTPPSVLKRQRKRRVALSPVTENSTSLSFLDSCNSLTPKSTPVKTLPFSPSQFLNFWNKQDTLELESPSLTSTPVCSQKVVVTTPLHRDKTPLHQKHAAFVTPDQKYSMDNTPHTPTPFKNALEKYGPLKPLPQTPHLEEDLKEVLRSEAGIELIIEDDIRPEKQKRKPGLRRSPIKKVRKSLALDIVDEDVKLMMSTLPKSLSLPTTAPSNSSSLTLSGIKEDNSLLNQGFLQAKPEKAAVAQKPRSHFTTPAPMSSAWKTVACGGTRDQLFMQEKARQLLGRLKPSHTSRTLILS

| effect of a mutation on the interaction | Variant |
| --- | --- |
| with no effect | MSRVPSPPPPAEMSSGPVAESWCYTQIKVVKFSYMWTINNFSFCREEMGEVIKSSTFSSGANDKLKWCLRVNPKGLDEESKDYLSLYLLLVSCPKSEVRAKFKFSILNAKGEETKAMESQRAYRFVQGKDWGLKKFIRRDFLLDEANGLLPDDKLTLFCEVSVVQDSVNISGQNTMNMVKVPECRLADELGGLWENSRFTDCCLCVAGQEFQAHKAILAARSPVFSAMFEHEMEESKKNRVEINDVEPEVFKEMMCFIYTGKAPNLDKMADDLLAAADKYALERLKVMCEDALCSNLSVENAAEILILADLHSADQLKTQAVDFINYHASDVLETSGWKSMVVSHPHLVAEAYRSLASAQCPFLGPPRKRLKQS [F133L] |

Variants of: B1
Conditions: with myc_human MYC

| effect of a mutation on the interaction | Variant |
| --- | --- |
| with no effect | MSRVPSPPPPAEMSSGPVAESWCYTQIKVVKFSYMWTINNFSFCREEMGEVIKSSTFSSGANDKLKWCLRVNPKGLDEESKDYLSLYLLLVSCPKSEVRAKFKFSILNAKGEETKAMESQRAYRFVQGKDWGLKKFIRRDFLLDEANGLLPDDKLTLFCEVSVVQDSVNISGQNTMNMVKVPECRLADELGGLWENSRFTDCCLCVAGQEFQAHKAILAARSPVFSAMFEHEMEESKKNRVEINDVEPEVFKEMMCFIYTGKAPNLDKMADDLLAAADKYALERLKVMCEDALCSNLSVENAAEILILADLHSADQLKTQAVDFINYHASDVLETSGWKSMVVSHPHLVAEAYRSLASAQCPFLGPPRKRLKQS [F133L] |

Variants of: B1
Conditions: with mycn_human MYCN

| effect of a mutation on the interaction | Variant |
| --- | --- |
| with no effect | MSRVPSPPPPAEMSSGPVAESWCYTQIKVVKFSYMWTINNFSFCREEMGEVIKSSTFSSGANDKLKWCLRVNPKGLDEESKDYLSLYLLLVSCPKSEVRAKFKFSILNAKGEETKAMESQRAYRFVQGKDWGLKKFIRRDFLLDEANGLLPDDKLTLFCEVSVVQDSVNISGQNTMNMVKVPECRLADELGGLWENSRFTDCCLCVAGQEFQAHKAILAARSPVFSAMFEHEMEESKKNRVEINDVEPEVFKEMMCFIYTGKAPNLDKMADDLLAAADKYALERLKVMCEDALCSNLSVENAAEILILADLHSADQLKTQAVDFINYHASDVLETSGWKSMVVSHPHLVAEAYRSLASAQCPFLGPPRKRLKQS [F133L] |

Variants of: B1
Conditions: with ncoa3_human NCOA3, Q9Y6Q9

| effect of a mutation on the interaction | Variant |
| --- | --- |
| with no effect | MSRVPSPPPPAEMSSGPVAESWCYTQIKVVKFSYMWTINNFSFCREEMGEVIKSSTFSSGANDKLKWCLRVNPKGLDEESKDYLSLYLLLVSCPKSEVRAKFKFSILNAKGEETKAMESQRAYRFVQGKDWGLKKFIRRDFLLDEANGLLPDDKLTLFCEVSVVQDSVNISGQNTMNMVKVPECRLADELGGLWENSRFTDCCLCVAGQEFQAHKAILAARSPVFSAMFEHEMEESKKNRVEINDVEPEVFKEMMCFIYTGKAPNLDKMADDLLAAADKYALERLKVMCEDALCSNLSVENAAEILILADLHSADQLKTQAVDFINYHASDVLETSGWKSMVVSHPHLVAEAYRSLASAQCPFLGPPRKRLKQS [F133L] |

Variants of: B1
Conditions: with ikba_human NFKBIA

| effect of a mutation on the interaction | Variant |
| --- | --- |
| with no effect | MSRVPSPPPPAEMSSGPVAESWCYTQIKVVKFSYMWTINNFSFCREEMGEVIKSSTFSSGANDKLKWCLRVNPKGLDEESKDYLSLYLLLVSCPKSEVRAKFKFSILNAKGEETKAMESQRAYRFVQGKDWGLKKFIRRDFLLDEANGLLPDDKLTLFCEVSVVQDSVNISGQNTMNMVKVPECRLADELGGLWENSRFTDCCLCVAGQEFQAHKAILAARSPVFSAMFEHEMEESKKNRVEINDVEPEVFKEMMCFIYTGKAPNLDKMADDLLAAADKYALERLKVMCEDALCSNLSVENAAEILILADLHSADQLKTQAVDFINYHASDVLETSGWKSMVVSHPHLVAEAYRSLASAQCPFLGPPRKRLKQS [F133L] |

Variants of: B1
Conditions: with notc2_human NOTCH2, Q04721
notc2_human NOTCH2, Q04721, sequence (Q04721 whole entry): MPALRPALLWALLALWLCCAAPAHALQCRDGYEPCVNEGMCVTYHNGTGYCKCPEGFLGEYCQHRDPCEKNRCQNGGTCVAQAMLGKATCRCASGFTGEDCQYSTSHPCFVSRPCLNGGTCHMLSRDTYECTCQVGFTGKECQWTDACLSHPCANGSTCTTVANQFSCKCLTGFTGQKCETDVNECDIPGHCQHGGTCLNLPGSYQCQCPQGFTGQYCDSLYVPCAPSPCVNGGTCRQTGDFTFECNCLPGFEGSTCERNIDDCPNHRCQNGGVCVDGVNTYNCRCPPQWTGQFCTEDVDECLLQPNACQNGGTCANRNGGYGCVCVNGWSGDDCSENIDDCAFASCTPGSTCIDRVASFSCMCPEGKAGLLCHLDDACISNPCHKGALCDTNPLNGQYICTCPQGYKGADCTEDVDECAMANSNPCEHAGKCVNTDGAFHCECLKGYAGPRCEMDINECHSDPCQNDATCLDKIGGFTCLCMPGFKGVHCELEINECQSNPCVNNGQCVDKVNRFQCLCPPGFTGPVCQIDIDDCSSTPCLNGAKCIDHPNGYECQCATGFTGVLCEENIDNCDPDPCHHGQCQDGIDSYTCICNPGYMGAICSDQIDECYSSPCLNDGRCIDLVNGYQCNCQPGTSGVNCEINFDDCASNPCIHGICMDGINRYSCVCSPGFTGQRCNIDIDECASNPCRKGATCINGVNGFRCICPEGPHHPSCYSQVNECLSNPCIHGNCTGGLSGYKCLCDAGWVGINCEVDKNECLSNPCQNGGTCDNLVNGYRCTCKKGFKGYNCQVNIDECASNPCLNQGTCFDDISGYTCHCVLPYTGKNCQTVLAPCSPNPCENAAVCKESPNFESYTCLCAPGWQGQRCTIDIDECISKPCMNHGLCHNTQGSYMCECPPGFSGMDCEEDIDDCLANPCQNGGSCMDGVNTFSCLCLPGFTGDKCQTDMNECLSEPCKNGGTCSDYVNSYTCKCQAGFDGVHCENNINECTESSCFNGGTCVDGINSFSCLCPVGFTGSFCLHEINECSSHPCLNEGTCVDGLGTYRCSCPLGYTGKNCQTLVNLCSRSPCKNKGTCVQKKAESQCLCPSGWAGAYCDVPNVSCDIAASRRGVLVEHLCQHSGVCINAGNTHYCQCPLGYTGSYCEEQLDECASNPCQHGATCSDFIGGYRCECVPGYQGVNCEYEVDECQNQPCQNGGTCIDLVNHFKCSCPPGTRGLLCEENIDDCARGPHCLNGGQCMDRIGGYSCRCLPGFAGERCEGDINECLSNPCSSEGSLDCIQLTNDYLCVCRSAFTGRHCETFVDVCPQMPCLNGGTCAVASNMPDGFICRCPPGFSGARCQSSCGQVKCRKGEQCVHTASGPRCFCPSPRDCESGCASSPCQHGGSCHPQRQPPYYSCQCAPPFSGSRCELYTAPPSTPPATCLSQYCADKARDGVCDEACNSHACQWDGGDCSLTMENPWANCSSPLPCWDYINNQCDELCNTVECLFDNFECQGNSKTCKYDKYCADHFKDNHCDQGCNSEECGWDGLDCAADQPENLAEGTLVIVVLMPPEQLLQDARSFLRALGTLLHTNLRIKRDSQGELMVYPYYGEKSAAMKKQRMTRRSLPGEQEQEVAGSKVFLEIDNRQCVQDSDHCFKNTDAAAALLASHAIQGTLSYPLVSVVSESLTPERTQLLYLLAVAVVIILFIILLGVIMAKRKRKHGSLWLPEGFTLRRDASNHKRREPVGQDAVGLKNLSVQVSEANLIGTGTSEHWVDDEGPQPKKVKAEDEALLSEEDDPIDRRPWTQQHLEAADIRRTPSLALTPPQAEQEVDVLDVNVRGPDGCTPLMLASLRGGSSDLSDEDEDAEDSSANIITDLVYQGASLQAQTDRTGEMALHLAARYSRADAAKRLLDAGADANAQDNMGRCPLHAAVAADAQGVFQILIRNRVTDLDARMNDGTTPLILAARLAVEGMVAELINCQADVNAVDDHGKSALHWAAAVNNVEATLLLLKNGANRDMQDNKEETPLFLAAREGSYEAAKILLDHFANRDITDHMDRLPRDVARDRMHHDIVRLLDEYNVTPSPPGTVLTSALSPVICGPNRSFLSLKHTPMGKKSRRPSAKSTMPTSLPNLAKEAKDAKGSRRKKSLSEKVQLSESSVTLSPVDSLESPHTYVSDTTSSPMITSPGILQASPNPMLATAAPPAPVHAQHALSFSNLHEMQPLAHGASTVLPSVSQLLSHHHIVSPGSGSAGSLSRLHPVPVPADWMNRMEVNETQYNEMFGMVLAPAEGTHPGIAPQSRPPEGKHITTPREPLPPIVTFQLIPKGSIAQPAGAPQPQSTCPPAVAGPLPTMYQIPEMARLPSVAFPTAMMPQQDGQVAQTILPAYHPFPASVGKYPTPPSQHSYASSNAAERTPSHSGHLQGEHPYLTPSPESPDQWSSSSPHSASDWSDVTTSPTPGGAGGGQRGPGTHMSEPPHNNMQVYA

| effect of a mutation on the interaction | Variant |
| --- | --- |
| with no effect | MSRVPSPPPPAEMSSGPVAESWCYTQIKVVKFSYMWTINNFSFCREEMGEVIKSSTFSSGANDKLKWCLRVNPKGLDEESKDYLSLYLLLVSCPKSEVRAKFKFSILNAKGEETKAMESQRAYRFVQGKDWGLKKFIRRDFLLDEANGLLPDDKLTLFCEVSVVQDSVNISGQNTMNMVKVPECRLADELGGLWENSRFTDCCLCVAGQEFQAHKAILAARSPVFSAMFEHEMEESKKNRVEINDVEPEVFKEMMCFIYTGKAPNLDKMADDLLAAADKYALERLKVMCEDALCSNLSVENAAEILILADLHSADQLKTQAVDFINYHASDVLETSGWKSMVVSHPHLVAEAYRSLASAQCPFLGPPRKRLKQS [F133L] |

Variants of: B1
Conditions: with nox1_human NOX1, Q9Y5S8

| effect of a mutation on the interaction | Variant |
| --- | --- |
| with no effect | MSRVPSPPPPAEMSSGPVAESWCYTQIKVVKFSYMWTINNFSFCREEMGEVIKSSTFSSGANDKLKWCLRVNPKGLDEESKDYLSLYLLLVSCPKSEVRAKFKFSILNAKGEETKAMESQRAYRFVQGKDWGLKKFIRRDFLLDEANGLLPDDKLTLFCEVSVVQDSVNISGQNTMNMVKVPECRLADELGGLWENSRFTDCCLCVAGQEFQAHKAILAARSPVFSAMFEHEMEESKKNRVEINDVEPEVFKEMMCFIYTGKAPNLDKMADDLLAAADKYALERLKVMCEDALCSNLSVENAAEILILADLHSADQLKTQAVDFINYHASDVLETSGWKSMVVSHPHLVAEAYRSLASAQCPFLGPPRKRLKQS [F133L] |

Variants of: B1
Conditions: with ntrk2_human NTRK2, Q16620

| effect of a mutation on the interaction | Variant |
| --- | --- |
| with no effect | MSRVPSPPPPAEMSSGPVAESWCYTQIKVVKFSYMWTINNFSFCREEMGEVIKSSTFSSGANDKLKWCLRVNPKGLDEESKDYLSLYLLLVSCPKSEVRAKFKFSILNAKGEETKAMESQRAYRFVQGKDWGLKKFIRRDFLLDEANGLLPDDKLTLFCEVSVVQDSVNISGQNTMNMVKVPECRLADELGGLWENSRFTDCCLCVAGQEFQAHKAILAARSPVFSAMFEHEMEESKKNRVEINDVEPEVFKEMMCFIYTGKAPNLDKMADDLLAAADKYALERLKVMCEDALCSNLSVENAAEILILADLHSADQLKTQAVDFINYHASDVLETSGWKSMVVSHPHLVAEAYRSLASAQCPFLGPPRKRLKQS [F133L] |

Variants of: B1
Conditions: with ntrk3_human NTRK3, Q16288

| effect of a mutation on the interaction | Variant |
| --- | --- |
| with no effect | MSRVPSPPPPAEMSSGPVAESWCYTQIKVVKFSYMWTINNFSFCREEMGEVIKSSTFSSGANDKLKWCLRVNPKGLDEESKDYLSLYLLLVSCPKSEVRAKFKFSILNAKGEETKAMESQRAYRFVQGKDWGLKKFIRRDFLLDEANGLLPDDKLTLFCEVSVVQDSVNISGQNTMNMVKVPECRLADELGGLWENSRFTDCCLCVAGQEFQAHKAILAARSPVFSAMFEHEMEESKKNRVEINDVEPEVFKEMMCFIYTGKAPNLDKMADDLLAAADKYALERLKVMCEDALCSNLSVENAAEILILADLHSADQLKTQAVDFINYHASDVLETSGWKSMVVSHPHLVAEAYRSLASAQCPFLGPPRKRLKQS [F133L] |

Variants of: B1
Conditions: with pak3_human PAK3, O75914
pak3_human PAK3, O75914, sequence (O75914 whole entry, looked up): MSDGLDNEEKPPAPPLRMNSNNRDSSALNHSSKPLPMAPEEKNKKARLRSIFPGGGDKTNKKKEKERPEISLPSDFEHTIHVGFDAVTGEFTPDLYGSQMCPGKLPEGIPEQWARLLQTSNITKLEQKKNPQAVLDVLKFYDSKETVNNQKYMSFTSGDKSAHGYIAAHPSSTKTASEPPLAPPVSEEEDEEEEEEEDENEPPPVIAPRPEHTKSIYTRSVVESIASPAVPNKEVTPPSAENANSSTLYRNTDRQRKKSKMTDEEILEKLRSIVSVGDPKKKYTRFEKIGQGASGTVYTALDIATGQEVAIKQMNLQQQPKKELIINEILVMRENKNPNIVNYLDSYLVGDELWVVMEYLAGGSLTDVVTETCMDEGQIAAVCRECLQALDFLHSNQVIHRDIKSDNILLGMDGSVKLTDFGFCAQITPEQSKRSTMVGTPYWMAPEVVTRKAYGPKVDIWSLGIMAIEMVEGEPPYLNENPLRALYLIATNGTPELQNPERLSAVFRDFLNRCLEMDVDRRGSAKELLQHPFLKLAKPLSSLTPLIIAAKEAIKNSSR

| effect of a mutation on the interaction | Variant |
| --- | --- |
| with no effect | MSRVPSPPPPAEMSSGPVAESWCYTQIKVVKFSYMWTINNFSFCREEMGEVIKSSTFSSGANDKLKWCLRVNPKGLDEESKDYLSLYLLLVSCPKSEVRAKFKFSILNAKGEETKAMESQRAYRFVQGKDWGLKKFIRRDFLLDEANGLLPDDKLTLFCEVSVVQDSVNISGQNTMNMVKVPECRLADELGGLWENSRFTDCCLCVAGQEFQAHKAILAARSPVFSAMFEHEMEESKKNRVEINDVEPEVFKEMMCFIYTGKAPNLDKMADDLLAAADKYALERLKVMCEDALCSNLSVENAAEILILADLHSADQLKTQAVDFINYHASDVLETSGWKSMVVSHPHLVAEAYRSLASAQCPFLGPPRKRLKQS [F133L] |

Variants of: B1
Conditions: with prkn_human PRKN

| effect of a mutation on the interaction | Variant |
| --- | --- |
| with no effect | MSRVPSPPPPAEMSSGPVAESWCYTQIKVVKFSYMWTINNFSFCREEMGEVIKSSTFSSGANDKLKWCLRVNPKGLDEESKDYLSLYLLLVSCPKSEVRAKFKFSILNAKGEETKAMESQRAYRFVQGKDWGLKKFIRRDFLLDEANGLLPDDKLTLFCEVSVVQDSVNISGQNTMNMVKVPECRLADELGGLWENSRFTDCCLCVAGQEFQAHKAILAARSPVFSAMFEHEMEESKKNRVEINDVEPEVFKEMMCFIYTGKAPNLDKMADDLLAAADKYALERLKVMCEDALCSNLSVENAAEILILADLHSADQLKTQAVDFINYHASDVLETSGWKSMVVSHPHLVAEAYRSLASAQCPFLGPPRKRLKQS [F133L] |

Variants of: B1
Conditions: with pax5_human PAX5, Q02548
pax5_human PAX5, Q02548, sequence (Q02548 whole entry): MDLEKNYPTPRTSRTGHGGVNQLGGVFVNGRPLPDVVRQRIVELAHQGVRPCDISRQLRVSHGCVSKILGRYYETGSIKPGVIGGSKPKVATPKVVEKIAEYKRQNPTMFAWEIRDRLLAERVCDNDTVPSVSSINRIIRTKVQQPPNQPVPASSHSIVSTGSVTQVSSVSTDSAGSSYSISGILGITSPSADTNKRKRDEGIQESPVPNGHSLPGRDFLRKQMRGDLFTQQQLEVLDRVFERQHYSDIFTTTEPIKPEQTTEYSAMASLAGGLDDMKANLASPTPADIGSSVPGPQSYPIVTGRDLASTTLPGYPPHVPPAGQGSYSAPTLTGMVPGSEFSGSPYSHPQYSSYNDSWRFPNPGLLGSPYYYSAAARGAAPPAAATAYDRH

| effect of a mutation on the interaction | Variant |
| --- | --- |
| with no effect | MSRVPSPPPPAEMSSGPVAESWCYTQIKVVKFSYMWTINNFSFCREEMGEVIKSSTFSSGANDKLKWCLRVNPKGLDEESKDYLSLYLLLVSCPKSEVRAKFKFSILNAKGEETKAMESQRAYRFVQGKDWGLKKFIRRDFLLDEANGLLPDDKLTLFCEVSVVQDSVNISGQNTMNMVKVPECRLADELGGLWENSRFTDCCLCVAGQEFQAHKAILAARSPVFSAMFEHEMEESKKNRVEINDVEPEVFKEMMCFIYTGKAPNLDKMADDLLAAADKYALERLKVMCEDALCSNLSVENAAEILILADLHSADQLKTQAVDFINYHASDVLETSGWKSMVVSHPHLVAEAYRSLASAQCPFLGPPRKRLKQS [F133L] |

Variants of: B1
Conditions: with pcbp1_human PCBP1, Q15365
pcbp1_human PCBP1, Q15365, sequence (Q15365 whole entry): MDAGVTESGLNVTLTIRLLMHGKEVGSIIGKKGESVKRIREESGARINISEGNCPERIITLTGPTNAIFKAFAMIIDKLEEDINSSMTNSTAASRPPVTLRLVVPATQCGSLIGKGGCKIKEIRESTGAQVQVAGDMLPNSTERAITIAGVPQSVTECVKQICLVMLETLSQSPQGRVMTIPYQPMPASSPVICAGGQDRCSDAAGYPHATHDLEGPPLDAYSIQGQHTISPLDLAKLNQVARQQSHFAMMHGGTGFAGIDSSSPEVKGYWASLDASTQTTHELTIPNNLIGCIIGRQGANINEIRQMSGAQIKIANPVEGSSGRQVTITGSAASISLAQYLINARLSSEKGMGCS

| effect of a mutation on the interaction | Variant |
| --- | --- |
| with no effect | MSRVPSPPPPAEMSSGPVAESWCYTQIKVVKFSYMWTINNFSFCREEMGEVIKSSTFSSGANDKLKWCLRVNPKGLDEESKDYLSLYLLLVSCPKSEVRAKFKFSILNAKGEETKAMESQRAYRFVQGKDWGLKKFIRRDFLLDEANGLLPDDKLTLFCEVSVVQDSVNISGQNTMNMVKVPECRLADELGGLWENSRFTDCCLCVAGQEFQAHKAILAARSPVFSAMFEHEMEESKKNRVEINDVEPEVFKEMMCFIYTGKAPNLDKMADDLLAAADKYALERLKVMCEDALCSNLSVENAAEILILADLHSADQLKTQAVDFINYHASDVLETSGWKSMVVSHPHLVAEAYRSLASAQCPFLGPPRKRLKQS [F133L] |

Variants of: B1
Conditions: with pdcd1_human PDCD1, Q15116
pdcd1_human PDCD1, Q15116, sequence (Q15116 whole entry): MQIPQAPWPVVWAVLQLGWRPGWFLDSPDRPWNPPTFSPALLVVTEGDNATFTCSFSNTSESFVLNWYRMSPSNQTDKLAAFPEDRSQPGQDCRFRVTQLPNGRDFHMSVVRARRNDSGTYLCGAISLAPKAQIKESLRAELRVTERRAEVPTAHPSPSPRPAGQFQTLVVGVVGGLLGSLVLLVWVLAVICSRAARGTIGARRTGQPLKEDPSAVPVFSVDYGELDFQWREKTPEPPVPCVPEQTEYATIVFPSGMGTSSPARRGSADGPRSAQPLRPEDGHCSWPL

| effect of a mutation on the interaction | Variant |
| --- | --- |
| with no effect | MSRVPSPPPPAEMSSGPVAESWCYTQIKVVKFSYMWTINNFSFCREEMGEVIKSSTFSSGANDKLKWCLRVNPKGLDEESKDYLSLYLLLVSCPKSEVRAKFKFSILNAKGEETKAMESQRAYRFVQGKDWGLKKFIRRDFLLDEANGLLPDDKLTLFCEVSVVQDSVNISGQNTMNMVKVPECRLADELGGLWENSRFTDCCLCVAGQEFQAHKAILAARSPVFSAMFEHEMEESKKNRVEINDVEPEVFKEMMCFIYTGKAPNLDKMADDLLAAADKYALERLKVMCEDALCSNLSVENAAEILILADLHSADQLKTQAVDFINYHASDVLETSGWKSMVVSHPHLVAEAYRSLASAQCPFLGPPRKRLKQS [F133L] |

Variants of: B1
Conditions: with pgfrb_human PDGFRB

| effect of a mutation on the interaction | Variant |
| --- | --- |
| with no effect | MSRVPSPPPPAEMSSGPVAESWCYTQIKVVKFSYMWTINNFSFCREEMGEVIKSSTFSSGANDKLKWCLRVNPKGLDEESKDYLSLYLLLVSCPKSEVRAKFKFSILNAKGEETKAMESQRAYRFVQGKDWGLKKFIRRDFLLDEANGLLPDDKLTLFCEVSVVQDSVNISGQNTMNMVKVPECRLADELGGLWENSRFTDCCLCVAGQEFQAHKAILAARSPVFSAMFEHEMEESKKNRVEINDVEPEVFKEMMCFIYTGKAPNLDKMADDLLAAADKYALERLKVMCEDALCSNLSVENAAEILILADLHSADQLKTQAVDFINYHASDVLETSGWKSMVVSHPHLVAEAYRSLASAQCPFLGPPRKRLKQS [F133L] |

From IntAct's records for PubMed 35512704
